For test [1], the target named is clone 3 of FIG. 6 envelope protein (clone 11 of FIGS. 7-9), with L261S (HIV-1). Kind of test: cell-based or functional assay.
The target of test [2] is clone 3 of FIG. 6 envelope protein with the wild-type residue at position 261 (HIV-1). Kind of test: cell-based or functional assay.
The subject of test [3] is HIV-1 particles pseudotyped with patient-derived or chimeric envelope proteins (gp160). Nature of the test: Cell based HIV-1 entry assay (pseudotyped virus, luciferase): entry inhibitor susceptibility. The conditions noted are these: FIG. 6; compared with sensitivity to B4. How it is done: In this embodiment, drug susceptibility, co-receptor tropism and virus neutralization testing are performed by co-transfecting a host cell with pHIVenv and pHIVlucΔU3. The host cell produces HIV particles that are pseudo-typed with HIV envelope sequences derived from the test virus or subject sample. Virus particles are collected (˜48 h) after transfection and are used to infect target cells that express HIV receptors (e.g. CD4) and co-receptors (e.g. CXCR4, CCR5). After infection (˜72 h) the target cells are lysed and luciferase activity is measured. HIV must complete one round of replication to successfully infect the target host cell and produce luciferase activity. […]
Drug susceptibility testing was performed using pHIVenv and pHIVluc or pHIVlucΔU3. […] After infection (˜72 h) the target cells are lysed and luciferase activity is measured. […] The amount of luciferase activity detected in the infected cells is used as a direct measure of “infectivity” (FIGS. 1 and 2). […] Drug susceptibility is assessed by comparing the infectivity in the absence of drug to infectivity in the presence of drug. Relative drug susceptibility can be quantified by comparing the susceptibility of the “test” virus to the susceptibility of a well-characterized reference virus (wildtype) derived from a molecular clone of HIV-1, for example NL4-3 or HXB2. […]

“PRO542 (from UniProt P01730 26-204) (receptor)”: the IC50 of PRO542, log-sigmoid inhibition curves of the entry assay in test [1] came to 11 µg/ml; in test [2], 0.9 µg/ml. “TNX-355: HIV entry inhibitor under investigation (Tanox Inc.), listed as CD4 binding site entry inhibitor”: the “sensitivity to entry inhibitor, sixteen clones of one patient” value in test [3] is “varied inversely to sensitivity to B4”.

For the origin of these results see patent publication US11499200B2, “Methods for determining resistance or susceptibility to HIV entry inhibitors” (Monogram Biosciences, Inc., priority 2005, dated 2022).
